According to ChEMBL document CHEMBL2074234, “Functional expression of the canalicular bile salt export pump of human liver” (Gastroenterology, 2002):

Legend:
Assay type in all cases: functional, cell membranes, Membrane vesicle
[1] = substrate: C[C@H](CCC(=O)NCCS(=O)(=O)O)[C@H]1CC[C@H]2[C@@H]3[C@@H](O)C[C@@H]4C[C@H](O)CC[C@]4(C)[C@H]3CC[C@]12C; test: (§1) TP_TRANSPORTER: uptake in membrane vesicles isolated from Bsep-expressing Sf9 cells
[2] = substrate: C[C@H](CCC(=O)NCC(=O)O)[C@H]1CC[C@H]2[C@@H]3[C@H](O)C[C@@H]4C[C@H](O)CC[C@]4(C)[C@H]3C[C@H](O)[C@]12C; test: as §1
[3] = substrate: C[C@H](CCC(=O)NCCS(=O)(=O)O)[C@H]1CC[C@H]2[C@@H]3[C@H](O)C[C@@H]4C[C@H](O)CC[C@]4(C)[C@H]3CC[C@]12C; test: as §1

B1: Bile salt export pump (Homo sapiens) (protein)
chain: MSDSVILRSIKKFGEENDGFESDKSYNNDKKSRLQDEKKGDGVRVGFFQLFRFSSSTDIWLMFVGSLCAFLHGIAQPGVLLIFGTMTDVFIDYDVELQELQIPGKACVNNTIVWTNSSLNQNMTNGTRCGLLNIESEMIKFASYYAGIAVAVLITGYIQICFWVIAAARQIQKMRKFYFRRIMRMEIGWFDCNSVGELNTRFSDDINKINDAIADQMALFIQRMTSTICGFLLGFFRGWKLTLVIISVSPLIGIGAATIGLSVSKFTDYELKAYAKAGVVADEVISSMRTVAAFGGEKREVERYEKNLVFAQRWGIRKGIVMGFFTGFVWCLIFLCYALAFWYGSTLVLDEGEYTPGTLVQIFLSVIVGALNLGNASPCLEAFATGRAAATSIFETIDRKPIIDCMSEDGYKLDRIKGEIEFHNVTFHYPSRPEVKILNDLNMVIKPGEMTALVGPSGAGKSTALQLIQRFYDPCEGMVTVDGHDIRSLNIQWLRDQIGIVEQEPVLFSTTIAENIRYGREDATMEDIVQAAKEANAYNFIMDLPQQFDTLVGEGGGQMSGGQKQRVAIARALIRNPKILLLDMATSALDNESEAMVQEVLSKIQHGHTIISVAHRLSTVRAADTIIGFEHGTAVERGTHEELLERKGVYFTLVTLQSQGNQALNEEDIKDATEDDMLARTFSRGSYQDSLRASIRQRSKSQLSYLVHEPPLAVVDHKSTYEEDRKDKDIPVQEEVEPAPVRRILKFSAPEWPYMLVGSVGAAVNGTVTPLYAFLFSQILGTFSIPDKEEQRSQINGVCLLFVAMGCVSLFTQFLQGYAFAKSGELLTKRLRKFGFRAMLGQDIAWFDDLRNSPGALTTRLATDASQVQGAAGSQIGMIVNSFTNVTVAMIIAFSFSWKLSLVILCFFPFLALSGATQTRMLTGFASRDKQALEMVGQITNEALSNIRTVAGIGKERRFIEALETELEKPFKTAIQKANIYGFCFAFAQCIMFIANSASYRYGGYLISNEGLHFSYVFRVISAVVLSATALGRAFSYTPSYAKAKISAARFFQLLDRQPPISVYNTAGEKWDNFQGKIDFVDCKFTYPSRPDSQVLNGLSVSISPGQTLAFVGSSGCGKSTSIQLLERFYDPDQGKVMIDGHDSKKVNVQFLRSNIGIVSQEPVLFACSIMDNIKYGDNTKEIPMERVIAAAKQAQLHDFVMSLPEKYETNVGSQGSQLSRGEKQRIAIARAIVRDPKILLLDEATSALDTESEKTVQVALDKAREGRTCIVIAHRLSTIQNADIIAVMAQGVVIEKGTHEELMAQKGAYYKLVTTGSPIS
Km [1]: 11.9 µM | Km [2]: 11.1 µM | Km [3]: 4.8 µM
